Measurements taken from paper PMC10501992, “How Pol α-primase is targeted to replisomes to prime eukaryotic DNA replication” (Molecular Cell, 2023).

Tests used:
Conditions in all cases: both partners purified
[1] = target: T1, POLA2 (human Pol α accessory subunit) (human, UniProt Q14181 1-598); assay: cryo-EM structure; human replisome: 150 nM CMG on fork DNA (60 nt or 15 nt 5′ flap) with 1.5-fold molar excess of AND-1, TIMELESS-TIPIN, CLASPIN and Pol α-primase; 25 mM HEPES-NaOH pH 7.6, 150 mM NaOAc, 0.5 mM TCEP, 500 μM AMP-PNP, 10 mM Mg(OAc)2, on ice; 10-30% glycerol gradient with glutaraldehyde and BS3 cross-linkers
T1 construct: POLA2, human; stood in the assay as a subunit of m18
T1 sequence: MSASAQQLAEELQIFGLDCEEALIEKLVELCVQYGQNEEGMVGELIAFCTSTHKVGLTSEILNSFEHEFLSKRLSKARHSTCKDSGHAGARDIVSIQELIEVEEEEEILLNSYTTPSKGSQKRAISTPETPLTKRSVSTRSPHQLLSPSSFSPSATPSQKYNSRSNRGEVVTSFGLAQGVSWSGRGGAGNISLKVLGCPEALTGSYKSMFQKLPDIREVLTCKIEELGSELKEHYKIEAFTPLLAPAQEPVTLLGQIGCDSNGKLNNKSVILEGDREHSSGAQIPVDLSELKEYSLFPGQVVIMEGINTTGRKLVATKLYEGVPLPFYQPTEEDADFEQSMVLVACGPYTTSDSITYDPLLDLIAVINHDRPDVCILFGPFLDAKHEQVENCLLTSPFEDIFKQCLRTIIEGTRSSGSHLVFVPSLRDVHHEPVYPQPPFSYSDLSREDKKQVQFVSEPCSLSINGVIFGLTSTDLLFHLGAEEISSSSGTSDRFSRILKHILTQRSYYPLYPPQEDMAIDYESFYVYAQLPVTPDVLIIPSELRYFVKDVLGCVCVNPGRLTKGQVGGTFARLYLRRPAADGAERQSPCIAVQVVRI

[2] = target: T2, Pol1 (budding yeast Pol α catalytic subunit) (S. cerevisiae, UniProt P13382 1-1468); assay: cryo-EM structure; budding yeast replisome: 150 nM CMG on fork DNA (39 nt 3′ flap, 60 nt 5′ flap) with 1.5-fold molar excess of Tof1-Csm3, Mrc1 and Pol α-primase; 25 mM HEPES-NaOH pH 7.6, 150 mM NaOAc, 0.5 mM TCEP, 500 μM AMP-PNP, 10 mM Mg(OAc)2, on ice; 10-30% glycerol gradient with glutaraldehyde and BS3 cross-linkers
T2 construct: Pol1, S. cerevisiae; modelled: CTD 1271-1468 and CIP box F140-S149; stood in the assay as a subunit of m1; also called Pol1CTD; Pol1CIP; source: subunit of Pol α-primase from S. cerevisiae strain yAE95, purified as described previously
T2 sequence: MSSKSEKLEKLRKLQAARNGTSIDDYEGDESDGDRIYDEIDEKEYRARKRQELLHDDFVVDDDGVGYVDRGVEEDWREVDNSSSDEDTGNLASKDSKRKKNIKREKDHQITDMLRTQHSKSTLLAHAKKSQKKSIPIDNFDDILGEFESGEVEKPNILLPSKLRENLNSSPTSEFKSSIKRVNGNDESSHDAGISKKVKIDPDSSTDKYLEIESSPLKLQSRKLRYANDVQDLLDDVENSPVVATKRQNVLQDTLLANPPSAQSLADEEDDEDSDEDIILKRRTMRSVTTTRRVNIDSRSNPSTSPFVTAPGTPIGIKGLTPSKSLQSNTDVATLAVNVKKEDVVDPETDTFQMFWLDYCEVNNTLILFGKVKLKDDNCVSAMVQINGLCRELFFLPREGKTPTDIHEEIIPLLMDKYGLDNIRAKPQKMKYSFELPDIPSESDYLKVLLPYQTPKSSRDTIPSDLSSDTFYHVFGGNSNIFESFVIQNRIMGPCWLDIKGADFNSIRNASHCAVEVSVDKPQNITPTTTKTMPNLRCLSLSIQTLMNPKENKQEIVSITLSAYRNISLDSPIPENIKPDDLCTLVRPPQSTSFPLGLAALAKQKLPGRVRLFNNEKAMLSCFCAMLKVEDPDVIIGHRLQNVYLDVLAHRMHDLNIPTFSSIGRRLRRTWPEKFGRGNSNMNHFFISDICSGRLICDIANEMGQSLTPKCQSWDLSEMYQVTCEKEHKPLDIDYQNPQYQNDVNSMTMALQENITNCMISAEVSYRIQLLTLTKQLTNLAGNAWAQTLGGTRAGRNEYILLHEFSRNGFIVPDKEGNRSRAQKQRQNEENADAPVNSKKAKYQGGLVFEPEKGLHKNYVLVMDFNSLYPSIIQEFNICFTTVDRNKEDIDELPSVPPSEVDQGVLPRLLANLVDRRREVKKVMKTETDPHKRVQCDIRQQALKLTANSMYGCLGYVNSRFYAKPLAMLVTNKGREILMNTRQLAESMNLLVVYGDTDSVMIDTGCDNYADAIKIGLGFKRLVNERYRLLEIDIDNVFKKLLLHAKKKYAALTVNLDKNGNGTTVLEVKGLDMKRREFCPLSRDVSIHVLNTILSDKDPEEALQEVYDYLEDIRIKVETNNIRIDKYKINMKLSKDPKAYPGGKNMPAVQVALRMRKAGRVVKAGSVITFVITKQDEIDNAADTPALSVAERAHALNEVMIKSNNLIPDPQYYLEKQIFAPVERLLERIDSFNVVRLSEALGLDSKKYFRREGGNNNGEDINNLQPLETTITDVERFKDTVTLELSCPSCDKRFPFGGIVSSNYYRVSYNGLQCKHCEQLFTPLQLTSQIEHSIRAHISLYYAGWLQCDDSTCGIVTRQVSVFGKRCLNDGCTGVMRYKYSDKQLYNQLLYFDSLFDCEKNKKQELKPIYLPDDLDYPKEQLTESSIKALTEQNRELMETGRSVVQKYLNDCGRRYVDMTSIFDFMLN

Mcm3 (budding yeast) = target: T3, Mcm3 (budding yeast) (S. cerevisiae, UniProt P24279 1-971); assay: as above
T3 construct: Mcm3, S. cerevisiae; stood in the assay as a subunit of m2; source: subunit of CMG from S. cerevisiae strain yJY197, purified as described previously
T3 sequence (P24279 whole entry): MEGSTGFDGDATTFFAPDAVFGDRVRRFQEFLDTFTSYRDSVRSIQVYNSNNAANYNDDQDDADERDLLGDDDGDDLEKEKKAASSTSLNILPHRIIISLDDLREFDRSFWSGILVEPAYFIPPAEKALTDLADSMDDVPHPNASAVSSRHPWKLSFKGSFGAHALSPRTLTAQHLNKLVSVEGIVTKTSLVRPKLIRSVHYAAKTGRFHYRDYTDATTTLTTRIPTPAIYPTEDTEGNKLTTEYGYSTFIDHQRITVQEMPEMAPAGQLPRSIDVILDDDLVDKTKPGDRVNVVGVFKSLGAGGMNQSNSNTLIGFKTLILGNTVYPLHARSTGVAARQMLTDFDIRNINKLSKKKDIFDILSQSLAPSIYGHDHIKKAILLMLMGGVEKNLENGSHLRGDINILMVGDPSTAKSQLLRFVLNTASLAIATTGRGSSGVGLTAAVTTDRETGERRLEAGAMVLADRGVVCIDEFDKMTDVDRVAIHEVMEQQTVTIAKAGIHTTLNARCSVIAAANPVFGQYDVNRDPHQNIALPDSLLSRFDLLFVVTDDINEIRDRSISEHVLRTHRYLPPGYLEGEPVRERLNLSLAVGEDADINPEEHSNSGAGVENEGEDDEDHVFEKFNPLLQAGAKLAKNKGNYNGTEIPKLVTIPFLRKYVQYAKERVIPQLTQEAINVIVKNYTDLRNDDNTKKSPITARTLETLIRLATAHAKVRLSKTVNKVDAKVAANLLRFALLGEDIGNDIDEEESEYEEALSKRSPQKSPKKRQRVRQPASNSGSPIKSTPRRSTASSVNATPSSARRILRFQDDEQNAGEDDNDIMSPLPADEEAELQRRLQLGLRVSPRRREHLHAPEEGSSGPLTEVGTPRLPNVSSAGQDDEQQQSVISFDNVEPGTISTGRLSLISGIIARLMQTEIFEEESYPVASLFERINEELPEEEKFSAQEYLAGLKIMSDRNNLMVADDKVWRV

Mcm5 (budding yeast) = target: T4, Mcm5 (budding yeast) (S. cerevisiae, UniProt P29496 1-775); assay: as above
T4 construct: Mcm5, S. cerevisiae; stood in the assay as a subunit of m2; also called Mcm5ZnF; source: subunit of CMG from S. cerevisiae strain yJY197, purified as described previously
T4 sequence: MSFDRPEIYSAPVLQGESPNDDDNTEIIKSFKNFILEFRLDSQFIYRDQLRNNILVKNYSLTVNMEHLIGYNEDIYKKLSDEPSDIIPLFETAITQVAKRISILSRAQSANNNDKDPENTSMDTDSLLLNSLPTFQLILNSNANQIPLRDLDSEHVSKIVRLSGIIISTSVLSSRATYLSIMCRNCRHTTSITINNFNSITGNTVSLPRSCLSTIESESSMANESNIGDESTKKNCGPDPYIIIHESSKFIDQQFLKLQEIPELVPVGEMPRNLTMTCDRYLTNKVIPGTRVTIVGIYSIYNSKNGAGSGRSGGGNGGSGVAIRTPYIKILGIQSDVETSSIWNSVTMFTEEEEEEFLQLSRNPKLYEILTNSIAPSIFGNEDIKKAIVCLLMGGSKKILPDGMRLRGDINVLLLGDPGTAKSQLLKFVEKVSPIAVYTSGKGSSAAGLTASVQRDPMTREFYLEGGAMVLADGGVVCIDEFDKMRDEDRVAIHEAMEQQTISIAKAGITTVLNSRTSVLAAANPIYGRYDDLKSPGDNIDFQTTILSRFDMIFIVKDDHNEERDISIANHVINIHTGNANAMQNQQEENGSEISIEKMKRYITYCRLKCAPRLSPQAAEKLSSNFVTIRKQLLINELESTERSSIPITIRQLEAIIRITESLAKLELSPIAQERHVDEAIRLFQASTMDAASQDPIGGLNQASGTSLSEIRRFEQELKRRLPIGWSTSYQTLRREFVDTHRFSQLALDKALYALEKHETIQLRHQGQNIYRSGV

MCM3 (human) = target: T5, MCM3 (human) (human, UniProt P25205 1-808); assay: cryo-EM structure; human replisome: 150 nM CMG on fork DNA (60 nt or 15 nt 5′ flap) with 1.5-fold molar excess of AND-1, TIMELESS-TIPIN, CLASPIN and Pol α-primase; 25 mM HEPES-NaOH pH 7.6, 150 mM NaOAc, 0.5 mM TCEP, 500 μM AMP-PNP, 10 mM Mg(OAc)2, on ice; 10-30% glycerol gradient with glutaraldehyde and BS3 cross-linkers
T5 construct: MCM3, human; stood in the assay as a subunit of m19
T5 sequence: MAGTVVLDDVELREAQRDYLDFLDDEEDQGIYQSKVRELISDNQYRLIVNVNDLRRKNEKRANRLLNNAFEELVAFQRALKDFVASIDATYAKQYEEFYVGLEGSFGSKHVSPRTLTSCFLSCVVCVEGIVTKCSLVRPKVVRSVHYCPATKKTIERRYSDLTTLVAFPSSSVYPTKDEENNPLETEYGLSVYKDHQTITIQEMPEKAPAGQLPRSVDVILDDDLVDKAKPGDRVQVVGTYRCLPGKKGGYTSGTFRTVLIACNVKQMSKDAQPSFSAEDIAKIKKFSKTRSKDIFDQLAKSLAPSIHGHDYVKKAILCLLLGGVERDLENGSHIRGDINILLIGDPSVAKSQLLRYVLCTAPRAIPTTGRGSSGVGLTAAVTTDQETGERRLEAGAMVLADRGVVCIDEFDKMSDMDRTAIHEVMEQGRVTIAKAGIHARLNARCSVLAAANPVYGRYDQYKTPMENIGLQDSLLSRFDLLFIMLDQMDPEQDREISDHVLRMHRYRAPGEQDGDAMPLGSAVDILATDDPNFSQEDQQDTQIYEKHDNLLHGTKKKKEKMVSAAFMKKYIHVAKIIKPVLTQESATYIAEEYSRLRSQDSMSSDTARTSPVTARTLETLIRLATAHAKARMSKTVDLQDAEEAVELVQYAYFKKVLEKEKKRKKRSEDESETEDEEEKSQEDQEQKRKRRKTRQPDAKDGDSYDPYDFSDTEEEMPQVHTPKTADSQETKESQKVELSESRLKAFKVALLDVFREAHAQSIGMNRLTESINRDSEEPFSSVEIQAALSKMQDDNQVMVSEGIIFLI

B1: PSF1 (human GINS subunit) (natural protein)
chain: MFCEKAMELIRELHRAPEGQLPAFNEDGLRQVLEEMKALYEQNQSDVNEAKSGGRSDLIPTIKFRHCSLLRNRRCTVAYLYDRLLRIRALRWEYGSVLPNALRFHMAAEEMEWFNNYKRSLATYMRSLGGDEGLDITQDMKPPKSLYIEVRCLKDYGEFEVDDGTSVLLKKNSQHFLPRWKCEQLIRQGVLEHILS
notes: PSF1, subunit of GINS, human; stood in the assay as a subunit of m19
Does B1 bind [1]?
Result: binds

B2: Pri2 (budding yeast primase accessory subunit) (natural protein, S. cerevisiae)
chain: MFRQSKRRIASRKNFSSYDDIVKSELDVGNTNAANQIILSSSSSEEEKKLYARLYESKLSFYDLPPQGEITLEQFEIWAIDRLKILLEIESCLSRNKSIKEIETIIKPQFQKLLPFNTESLEDRKKDYYSHFILRLCFCRSKELREKFVRAETFLFKIRFNMLTSTDQTKFVQSLDLPLLQFISNEEKAELSHQLYQTVSASLQFQLNLNEEHQRKQYFQQEKFIKLPFENVIELVGNRLVFLKDGYAYLPQFQQLNLLSNEFASKLNQELIKTYQYLPRLNEDDRLLPILNHLSSGYTIADFNQQKANQFSENVDDEINAQSVWSEEISSNYPLCIKNLMEGLKKNHHLRYYGRQQLSLFLKGIGLSADEALKFWSEAFTRNGNMTMEKFNKEYRYSFRHNYGLEGNRINYKPWDCHTILSKPRPGRGDYHGCPFRDWSHERLSAELRSMKLTQAQIISVLDSCQKGEYTIACTKVFEMTHNSASADLEIGEQTHIAHPNLYFERSRQLQKKQQKLEKEKLFNNGNH
notes: Pri2, S. cerevisiae; modelled residues 1-5 (N terminus), 44-177 and 181-299 (NTD); stood in the assay as a subunit of m1; also called Pri2NTD; Pri2_(Nterm); source: subunit of Pol α-primase from S. cerevisiae strain yAE95, purified as described previously
Does B2 bind [2]?
Result: binds

Does B2 bind (Mcm3 (budding yeast))?
Result: binds

Does B2 bind (Mcm5 (budding yeast))?
Result: binds

B3: PRIM2 (human primase accessory subunit) (natural protein)
chain: MEFSGRKWRKLRLAGDQRNASYPHCLQFYLQPPSENISLIEFENLAIDRVKLLKSVENLGVSYVKGTEQYQSKLESELRKLKFSYRENLEDEYEPRRRDHISHFILRLAYCQSEELRRWFIQQEMDLLRFRFSILPKDKIQDFLKDSQLQFEAISDEEKTLREQEIVASSPSLSGLKLGFESIYKIPFADALDLFRGRKVYLEDGFAYVPLKDIVAIILNEFRAKLSKALALTARSLPAVQSDERLQPLLNHLSHSYTGQDYSTQGNVGKISLDQIDLLSTKSFPPCMRQLHKALRENHHLRHGGRMQYGLFLKGIGLTLEQALQFWKQEFIKGKMDPDKFDKGYSYNIRHSFGKEGKRTDYTPFSCLKIILSNPPSQGDYHGCPFRHSDPELLKQKLQSYKISPGGISQILDLVKGTHYQVACQKYFEMIHNVDDCGFSLNHPNQFFCESQRILNGGKDIKKEPIQPETPQPKPSVQKTKDASSALASLNSSLEMDMEGLEDYFSEDS
notes: PRIM2, human; modelled residues 1-5 (N terminus) and 17-252 (NTD); stood in the assay as a subunit of m18; also called PRIM2NTD; PRIM2_(Nterm)
Does B3 bind (MCM3 (human))?
Result: binds
